In publication PMC8086144, “A novel peptide antagonist of the human growth hormone receptor” (The Journal of Biological Chemistry, 2021):

Tests used:
hPRLR = target: T1, hPRLR (Homo sapiens, UniProt P16471); experiment: hGH-mediated pSTAT5 in T84 cells, Western blot; format: cell-based; settings: 50 nM inhibitor with 2.5 nM hGH, 20 min
T1 construct: T84 cells express high levels of hPRLR relative to hGHR (>1300:1); host or cells: T84 (human colon cancer), MALME-3M (human melanoma)
T1 sequence (P16471 25-622): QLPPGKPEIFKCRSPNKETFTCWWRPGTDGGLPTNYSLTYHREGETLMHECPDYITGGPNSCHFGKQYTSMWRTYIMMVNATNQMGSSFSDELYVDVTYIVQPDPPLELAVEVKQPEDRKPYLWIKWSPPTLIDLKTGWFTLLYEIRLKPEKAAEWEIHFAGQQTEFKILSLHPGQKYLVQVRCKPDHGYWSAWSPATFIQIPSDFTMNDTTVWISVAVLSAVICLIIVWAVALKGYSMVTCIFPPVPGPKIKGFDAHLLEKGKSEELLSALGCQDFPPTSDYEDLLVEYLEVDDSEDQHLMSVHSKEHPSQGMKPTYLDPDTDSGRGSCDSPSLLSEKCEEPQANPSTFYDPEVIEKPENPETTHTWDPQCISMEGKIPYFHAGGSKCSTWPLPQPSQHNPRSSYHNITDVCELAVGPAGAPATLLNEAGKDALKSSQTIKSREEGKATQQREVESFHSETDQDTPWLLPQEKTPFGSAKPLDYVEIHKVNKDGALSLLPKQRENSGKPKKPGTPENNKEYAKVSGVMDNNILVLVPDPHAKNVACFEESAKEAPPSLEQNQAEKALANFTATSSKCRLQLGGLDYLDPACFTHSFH
Method: SK-MEL-28, MALME-3M, and T84 cells were grown and maintained in Eagle's Minimal Essential Medium. IM9 and L cells were grown in RPMI-1640 media and Dulbecco's modified Eagle's medium, respectively. All growth media was supplemented with 10% fetal bovine serum and 1× antibiotic-antimycotic […] solution. Cells were grown at 37 °C under a 5% CO2 atmosphere in a humidified incubator, and growth media was replaced every 48 h during incubation. No hGH was present in or added to the growth media unless specifically indicated. […]
Following treatment, the cells were harvested at the indicated time points, and the total protein was extracted. […] Sample protein concentration was quantified using a Bradford assay with bovine serum albumin as the protein standard. Absorbance at 595 nm was measured using a Spectramax 250 multimode plate reader (Molecular Devices) and processed using SoftmaxPro v4.7.1 software.
Cytosolic fractions from treated cells were thawed on ice, and 80 μg protein was loaded onto polyacrylamide gels for separation by SDS-PAGE. […] Chemiluminescence signals were detected using a GelDoc (BioRad) fluorescence imager. […] Percent inhibition was then measured by subtracting the pSTAT5 band intensity in each lane from the pSTAT5 band intensity of hGH-treated samples. […]

[1] = target: T2, trypsin (bovine pancreas) (Bos taurus, UniProt P00760); experiment: Trypsin degradation of hGH and pegvisomant (HPLC and Western blot); format: in vitro ADME; settings: 4 μg/ml trypsin in digestion buffer pH 7.8, 37 °C, up to 8 h, 25 μg/ml protein
T2 construct: purchased Sigma-Aldrich; host or cells: bovine pancreas
T2 sequence (P00760 24-246): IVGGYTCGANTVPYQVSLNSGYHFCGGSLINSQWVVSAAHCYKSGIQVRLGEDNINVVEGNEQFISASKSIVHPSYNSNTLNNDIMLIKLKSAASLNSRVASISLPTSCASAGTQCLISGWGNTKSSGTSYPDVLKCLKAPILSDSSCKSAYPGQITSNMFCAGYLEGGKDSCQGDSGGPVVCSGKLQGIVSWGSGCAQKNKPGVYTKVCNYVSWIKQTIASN
Method: (§1) The samples were then incubated at 95 °C for 5 min before being cooled on ice and stored at −80 °C. […] Following separation, the proteins were transferred to polyvinylidine difluoride membranes and subjected to Western blot analysis (vide infra). The fraction of intact protein was quantified by measuring the integrated density of each band contained within regions of the gel corresponding to “intact” or “degraded” proteins. […] These reactions were allowed to incubate at 37 °C for up to 8 h, with samples removed at selected timepoints for analysis. Following incubation, the samples were either mixed with 5× Laemmli loading buffer and subjected to SDS-PAGE for Western blot analysis (Fig. S5) or directly injected onto a C18 reversed-phase column for analysis by HPLC as described above for the S1H peptide (Fig. S4).

[2] = Stability of hGH and pegvisomant in human serum (Western blot); format: in vitro ADME; settings: RPMI with 25% (v/v) heat-inactivated human AB serum, 37 °C, 25 μg/ml protein, SDS-PAGE/Western blot densitometry, average of three experiments
Method: as §1

[3] = target: T3, human prolactin receptor (human (endogenous in T84, MALME-3M)) (UniProt P16471)
T3 sequence: T1 sequence (P16471 25-622)

[4] = target: human growth hormone receptor (human (endogenous in SK-MEL-28, MALME-3M, IM9)) (UniProt P10912)
[5] = target: T4, mouse GHR (mouse (endogenous in L fibroblasts)) (UniProt P16882)
T4 sequence: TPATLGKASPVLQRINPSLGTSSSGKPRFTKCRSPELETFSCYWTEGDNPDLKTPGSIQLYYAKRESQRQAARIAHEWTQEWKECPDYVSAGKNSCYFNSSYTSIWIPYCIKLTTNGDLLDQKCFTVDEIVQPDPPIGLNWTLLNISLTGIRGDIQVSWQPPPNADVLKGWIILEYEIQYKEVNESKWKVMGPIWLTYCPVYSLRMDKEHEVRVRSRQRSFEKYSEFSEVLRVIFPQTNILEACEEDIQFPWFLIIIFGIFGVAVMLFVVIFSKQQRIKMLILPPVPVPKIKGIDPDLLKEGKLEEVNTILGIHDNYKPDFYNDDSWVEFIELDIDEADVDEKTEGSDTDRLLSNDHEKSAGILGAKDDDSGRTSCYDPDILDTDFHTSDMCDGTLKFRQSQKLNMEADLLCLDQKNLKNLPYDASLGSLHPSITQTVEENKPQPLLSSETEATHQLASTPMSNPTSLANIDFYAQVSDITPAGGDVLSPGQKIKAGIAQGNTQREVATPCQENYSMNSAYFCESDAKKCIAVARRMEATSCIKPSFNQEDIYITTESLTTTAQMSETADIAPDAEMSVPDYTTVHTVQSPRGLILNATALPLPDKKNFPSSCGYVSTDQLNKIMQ

[6] = target: human growth hormone receptor (human (endogenous in SK-MEL-28, MALME-3M, IM9)) (UniProt P10912); remark: listed apart in the source

Chain of human growth hormone receptor (human (endogenous in SK-MEL-28, MALME-3M, IM9)) (P10912 19-638): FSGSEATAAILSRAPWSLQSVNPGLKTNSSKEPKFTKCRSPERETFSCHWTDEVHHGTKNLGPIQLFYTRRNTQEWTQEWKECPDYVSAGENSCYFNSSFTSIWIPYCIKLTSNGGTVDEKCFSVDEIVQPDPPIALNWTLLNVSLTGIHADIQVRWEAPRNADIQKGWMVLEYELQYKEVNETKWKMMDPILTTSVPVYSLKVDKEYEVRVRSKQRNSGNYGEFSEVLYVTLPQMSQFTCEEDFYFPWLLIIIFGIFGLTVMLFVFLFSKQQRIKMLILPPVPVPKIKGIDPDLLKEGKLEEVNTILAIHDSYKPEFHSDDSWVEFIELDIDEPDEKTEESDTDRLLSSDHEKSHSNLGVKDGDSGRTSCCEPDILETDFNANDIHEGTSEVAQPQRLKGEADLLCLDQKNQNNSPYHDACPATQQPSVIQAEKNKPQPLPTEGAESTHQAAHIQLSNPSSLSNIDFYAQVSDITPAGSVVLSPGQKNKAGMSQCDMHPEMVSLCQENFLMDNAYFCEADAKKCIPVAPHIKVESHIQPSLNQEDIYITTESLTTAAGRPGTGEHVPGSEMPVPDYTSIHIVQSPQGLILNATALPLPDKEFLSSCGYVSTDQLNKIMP

## pegvisomant [reference compound]
hPRLR
  suppression of hGH-mediated phosphorylation of STAT5: 27%
[1]
  time to full degradation by trypsin: 4 h
[2]
  protein remaining intact after 48 h in human serum: 76%

## Ac-YIPKEQKYSFLQNPQT-NH2 [S1H peptide (site 1-binding helix)]
[3]
  inhibition of hPRL-induced pSTAT5 (Western blot) in MALME-3M cells treated with 2.5 nM hPRL and S1H; pair blocked: hPRL with hPRLR: 49%
[4]
  inhibition of hGH-induced pSTAT5 (Western blot) in MALME-3M cells treated with 2.5 nM hGH and 50 nM S1H; pair blocked: hGH with hGHR: 40%
[5]
  suppression of hGH-mediated pSTAT5 (Western blot) in mouse L fibroblasts co-treated with GH and 200 nM S1H; pair blocked: GH with the GHR of the L cells: 36%
[6]
  suppression of hGH-mediated pSTAT5 (Western blot) in IM9 cells co-treated with 2.5 nM hGH and 200 nM S1H; pair blocked: hGH with hGHR: 67%
  suppression of hGH-mediated pSTAT5 (Western blot) in MALME-3M cells co-treated with 2.5 nM hGH and 200 nM S1H; pair blocked: hGH with hGHR: 56%
  suppression of hGH-mediated pSTAT5 (Western blot) in SK-MEL-28 cells co-treated with 2.5 nM hGH and S1H, 100 nM (46%) to 200 nM (67%); pair blocked: hGH with hGHR: 67%
